# Assay results from article PMC10928148 (Molecular Therapy, 2024).
# Assays:
# [1] = target: T1, receptor binding domain of the SARS-CoV-2 (Wuhan) Spike protein with C-terminal 6xHis-tag (Severe acute respiratory syndrome …, UniProt P0DTC2); assay: SPR; conditions: both partners purified
# [2] = target: T1, receptor binding domain of the …; assay: SPR; conditions: both partners purified; remark: listed apart in the source
# [3] = target: T2, receptor binding domain of the SARS-CoV-2 (Wuhan) Spike protein with C-terminal 6xHis-tag (SARS-CoV-2 (Wuhan), UniProt P0DTC2); assay: SPR; conditions: both partners purified
# T2 construct: not shown: 6xHis, C-terminal, kept
# [4] = target: T2, receptor binding domain of the …; assay: cell-based or functional assay
Binder,Kd [1],Kd [3],koff [3],kon [3],other [4],other results
"2-15 monomeric IgA1 (antibody, V domains shown) VH: QVQLVQSGAEVKKPGASVRVSCKASGYTFTGYYMHWVRQAPGQGLEWMGWINPISDGTNYAQKFQGWVTMTRDTSISTVYMELSRLRSDDTAVYYCARGGSRCSGGNCYGWAYDAFDIWGQGTMITVSS VL: QSALTQPASVSGSPGQSITISCTGTSSDVGGYNFVSWYQQHPGKAPKLMIYDVSKRPSGVSNRFSGSKSGNTASLTISGLQAEDEADCYCSSYTSSSTFVFGTGTKVTVL",3.75 nM,,,,,
"2-15 monomeric IgA2 (antibody, V domains shown) VH: QVQLVQSGAEVKKPGASVRVSCKASGYTFTGYYMHWVRQAPGQGLEWMGWINPISDGTNYAQKFQGWVTMTRDTSISTVYMELSRLRSDDTAVYYCARGGSRCSGGNCYGWAYDAFDIWGQGTMITVSS VL: QSALTQPASVSGSPGQSITISCTGTSSDVGGYNFVSWYQQHPGKAPKLMIYDVSKRPSGVSNRFSGSKSGNTASLTISGLQAEDEADCYCSSYTSSSTFVFGTGTKVTVL",2.88 nM,,,,,
"2-15 IgG (antibody, V domains shown) VH: QVQLVQSGAEVKKPGASVRVSCKASGYTFTGYYMHWVRQAPGQGLEWMGWINPISDGTNYAQKFQGWVTMTRDTSISTVYMELSRLRSDDTAVYYCARGGSRCSGGNCYGWAYDAFDIWGQGTMITVSS VL: QSALTQPASVSGSPGQSITISCTGTSSDVGGYNFVSWYQQHPGKAPKLMIYDVSKRPSGVSNRFSGSKSGNTASLTISGLQAEDEADCYCSSYTSSSTFVFGTGTKVTVL",1.16 nM,,,,,
"COVA2-15 monomeric IgA1 (antibody, V domains shown) VH: QVQLLESGGGLVQPGGSLRLSCAASGFTFSSYAMSWVRQAPGKGLEWASAISGSGGSTYYADSVEGRFTISRDNSKNTLYLQMNSLRAEDTAVYYCAKDTGYCGDDCYIKLIRGGPDYWGQGTLVTVSS VL: DIVMTQSPLSLPVTLGQPASISCRSSQSLVYSDGNTFLNWFQQRPGQSPRRLIYQVSNRDSGVPDRFSGSGSGTDFTLKISRVEAEDVGVYYCMQGTHWPRTFGQGTKLEIK [COVA2-15 monomeric IgA1, listing 1 of 2 here]",,,,,,Kd [2]: 1.43 nM; koff [2]: 0.00027 s⁻¹; kon [2]: 231000 M⁻¹ s⁻¹
"COVA2-15 IgG (antibody, V domains shown) VH: QVQLLESGGGLVQPGGSLRLSCAASGFTFSSYAMSWVRQAPGKGLEWASAISGSGGSTYYADSVEGRFTISRDNSKNTLYLQMNSLRAEDTAVYYCAKDTGYCGDDCYIKLIRGGPDYWGQGTLVTVSS VL: DIVMTQSPLSLPVTLGQPASISCRSSQSLVYSDGNTFLNWFQQRPGQSPRRLIYQVSNRDSGVPDRFSGSGSGTDFTLKISRVEAEDVGVYYCMQGTHWPRTFGQGTKLEIK",,0.74 nM,0.00024 s⁻¹,333000 M⁻¹ s⁻¹,50 ng/mL,
"COVA2-15 secretory IgA1 (antibody, V domains shown) VH: QVQLLESGGGLVQPGGSLRLSCAASGFTFSSYAMSWVRQAPGKGLEWASAISGSGGSTYYADSVEGRFTISRDNSKNTLYLQMNSLRAEDTAVYYCAKDTGYCGDDCYIKLIRGGPDYWGQGTLVTVSS VL: DIVMTQSPLSLPVTLGQPASISCRSSQSLVYSDGNTFLNWFQQRPGQSPRRLIYQVSNRDSGVPDRFSGSGSGTDFTLKISRVEAEDVGVYYCMQGTHWPRTFGQGTKLEIK",,0.38 nM,0.00016 s⁻¹,423000 M⁻¹ s⁻¹,13.5 ng/mL,
"COVA2-15 monomeric IgA1 (antibody, V domains shown) VH: QVQLLESGGGLVQPGGSLRLSCAASGFTFSSYAMSWVRQAPGKGLEWASAISGSGGSTYYADSVEGRFTISRDNSKNTLYLQMNSLRAEDTAVYYCAKDTGYCGDDCYIKLIRGGPDYWGQGTLVTVSS VL: DIVMTQSPLSLPVTLGQPASISCRSSQSLVYSDGNTFLNWFQQRPGQSPRRLIYQVSNRDSGVPDRFSGSGSGTDFTLKISRVEAEDVGVYYCMQGTHWPRTFGQGTKLEIK [COVA2-15 monomeric IgA1, listing 2 of 2 here]",,,,,50 ng/mL,
"COVA2-15 monomeric IgA2 (antibody, V domains shown) VH: QVQLLESGGGLVQPGGSLRLSCAASGFTFSSYAMSWVRQAPGKGLEWASAISGSGGSTYYADSVEGRFTISRDNSKNTLYLQMNSLRAEDTAVYYCAKDTGYCGDDCYIKLIRGGPDYWGQGTLVTVSS VL: DIVMTQSPLSLPVTLGQPASISCRSSQSLVYSDGNTFLNWFQQRPGQSPRRLIYQVSNRDSGVPDRFSGSGSGTDFTLKISRVEAEDVGVYYCMQGTHWPRTFGQGTKLEIK [COVA2-15 monomeric IgA2, listing 1 of 2 here]",,,,,,Kd [2]: 1.67 nM; koff [2]: 0.00035 s⁻¹; kon [2]: 207000 M⁻¹ s⁻¹
"COVA2-15 monomeric IgA2 (antibody, V domains shown) VH: QVQLLESGGGLVQPGGSLRLSCAASGFTFSSYAMSWVRQAPGKGLEWASAISGSGGSTYYADSVEGRFTISRDNSKNTLYLQMNSLRAEDTAVYYCAKDTGYCGDDCYIKLIRGGPDYWGQGTLVTVSS VL: DIVMTQSPLSLPVTLGQPASISCRSSQSLVYSDGNTFLNWFQQRPGQSPRRLIYQVSNRDSGVPDRFSGSGSGTDFTLKISRVEAEDVGVYYCMQGTHWPRTFGQGTKLEIK [COVA2-15 monomeric IgA2, listing 2 of 2 here]",,,,,50 ng/mL,
"COVA2-15 secretory IgA2 (antibody, V domains shown) VH: QVQLLESGGGLVQPGGSLRLSCAASGFTFSSYAMSWVRQAPGKGLEWASAISGSGGSTYYADSVEGRFTISRDNSKNTLYLQMNSLRAEDTAVYYCAKDTGYCGDDCYIKLIRGGPDYWGQGTLVTVSS VL: DIVMTQSPLSLPVTLGQPASISCRSSQSLVYSDGNTFLNWFQQRPGQSPRRLIYQVSNRDSGVPDRFSGSGSGTDFTLKISRVEAEDVGVYYCMQGTHWPRTFGQGTKLEIK",,0.76 nM,0.00024 s⁻¹,326000 M⁻¹ s⁻¹,13.5 ng/mL,
